This series concerns the molecule itself. The experiment in a line: SEC-MALS. Background: Size exclusion chromatography separates by hydrodynamic size, large species first.

B1: TyrRSΔE2–4′ (TyrRSΔE2–4 splice variant of human tyrosyl-tRNA synthetase without the flexible linker aa343–360) (natural protein, UniProt P54577 1-528, looked up)
chain: MGDAPSPEEKLHLITRNLQALDEEYLKVDAQFGGIDQRKIFTFAEKYLPALGYSKRVHLMNPMVPGLTGSKMSSSEEESKIDLLDRKEDVKKKLKKAFCEPGNVENNGVLSFIKHVLFPLKSEFVILRDEKWGGNKTYTAYVDLEKDFAAEVVHPGDLKNSVEVALNKLLDPIREKFNTPALKKLASAAYPEEVIPSRLDIRVGKIITVEKHPDADSLYVEKIDVGEAEPRTVVSGLVQFVPKEELQDRLVVVLCNLKPQKMRGVESQGMLLCASIEGINRQVEPLDPPAGSAPGEHVFVKGYEKGQPDEELKPKKKVFEKLQADFKISEECIAQWKQTNFMTKLGSISCKSLKGGNIS
In the case of B1, the “stoichiometry N” value worked out at 2.

In general, stoichiometry N refers to the number of molecules, sites or subunits per partner or assembly.

The record behind these values is publication PMC4756856 (Nucleic Acids Research, 2016).
